# B1: N-TIMP-3: N-terminal inhibitory domain of TIMP-3 (residues 1 to 121), C-terminally His-tagged, wild-type (protein)
# chain: CTCSPSHPQDAFCNSDIVIRAKVVGKKLVKEGPFGTLVYTIKQMKMYRGFTKMPHVQYIHTEASESLCGLKLEVNKYQYLLTGRVYDGKMYTGLCNFVERWDQLTLSQRKGLNYRYHLGCN
# B2: (-2A)N-TIMP-3: N-TIMP-3 mutant with two alanine residues on the N-terminal side of Cysteine1 of the TIMP-3 sequence (protein)
# chain: AACTCSPSHPQDAFCNSDIVIRAKVVGKKLVKEGPFGTLVYTIKQMKMYRGFTKMPHVQYIHTEASESLCGLKLEVNKYQYLLTGRVYDGKMYTGLCNFVERWDQLTLSQRKGLNYRYHLGCN
# How the values were obtained:
# [1] = tested on: porcine articular cartilage; test: IL-1α-stimulated porcine articular cartilage degradation, GAG release (DMMB); type: cell-based; conditions: IL-1α 10 ng/ml, 3 days
# Experimental: FIG. 7. Inhibition of IL-1a stimulated porcine articular cartilage degradation by N-terminal mutants of N-TIMP-3. Porcine articular cartilage pieces were cultured for three days. Cartilage was stimulated with IL-1α (10 ng/ml) with TIMPs at the concentrations indicated. Glycosaminoglycan (GAG) release in the media was measured by dimethyl methylene blue (DMMB).
# Porcine articular cartilage from the metacarpophalangeal joints of 3-9 month old pigs is dissected into small shavings approximately 3 mm long and 2-3 mm wide. After dissection, the cartilage is allowed to rest for 24 h at 37° C. under 5% CO2 in DMEM containing penicillin-streptomycin, amphotericin B, and 5% fetal calf serum. The medium is then replaced with fresh media and the cartilage is rested for a further 24-48 h. […]
# GAG released into the conditioned media is measured in duplicate using a modification of the dimethylmethylene blue (DMMB) assay as described in Farndale et al.. […] The % of total GAG released into the medium is calculated as follows: % of total GAG released=(total GAG in the medium)/(total GAG in the medium+total GAG remaining in the cartilage).
# Porcine articular cartilage pieces were cultured for 3 days. […] Glycosaminoglycan (GAG) release in the media was measured by dimethyl methylene blue (DMMB).
# [2] = tested on: monocyte-derived macrophages (MDM); test: TNFα release by monocyte-derived macrophages (ELISA); type: cell-based, human; conditions: for EC50: 10 ng/ml LPS, read-out: EC50 for inhibition of LPS stimulated TNFα release by MDM; for Effect on basal TNFα release by MDM: no LPS
# Experimental: FIG. 9. The effect of TIMP-3 mutants on TNFα release by monocyte-derived-macrophages (MDM). […] Data is normalised to % LPS stimulation.
# To address the efficacy of TMP-3 mutants on MDM, MDM from a healthy subject were cultured in the laboratory and stimulated with LPS. The effect of TIMP-3 mutants on MMP-9 activity and TNFα was measured.
# This method was adapted from Dransfield et al., [7] and performed under sterile conditions. Blood was collected into EDTA (2% W/v). Dextran solution (6% w/v) was added to the whole blood in volumes of 10 ml per 20 ml blood and the final volume adjusted to 50 ml in Dulbecco's PBS. The samples were allowed to sediment at room temperature for 45 min. After sedimentation, the upper leukocyte rich layer was centrifuged at 400×g for 10 min, 4° C. and the supernatant discarded. The pellets containing the cells were resuspended in Dulbecco's PBS and centrifuged for a second time as before.
# The gradient consisted of three separate concentrations of Percoll™. A ‘100% v/v’ Percoll™ solution was prepared from 90% v/v Percoll™ containing 10% v/v 10×PBS. The gradient was then prepared as follows: 4 ml 81% v/v Percoll was added to a 15 ml Falcon tube. This was overlaid by 4 ml 70% v/v Percoll. The cell pellet was resuspended in 3 ml of 55% v/v Percoll™ and then overlaid onto the pre-prepared gradient. The cells were centrifuged at 750×g for 20 min at 4° C. The peripheral blood mononuclear cells (PBMCs) were harvested from the 55%/70% interface (top layer) and the polymorphonuclear (PMN) cells remained at the 70%/81% interface (bottom layer). PBMCs were washed twice by centrifugation in sterile PBS.
# PBMCs were washed in serum-containing separation buffer (sterile PBS, 0.5% w/v bovine serum albumin (BSA), 2 mM EDTA. The cells were diluted 1:100 in Kimura stain and counted using a haemocytometer. The cell pellet was resuspended with the following ratio of reagents from the monocyte isolation kit. 60 μl separation buffer, 20 μl Fc receptor (FcR) blocking reagent and 20 μl Hapten Conjugated Antibody cocktail were added to 10^7 cells and incubated at 6-12° C. for 5 min. The cells were washed twice (5 min, 4° C., 250×g) in separation buffer in a volume 10-20 times higher than the labelling volume. The cell pellet was resuspended in: 60 μl separation buffer, 20 μl FcR blocking reagent, 20 μl MACS anti-hapten microbeads and 5 μl CD15 microbeads (to remove any contaminating neutrophils) per 10^7 cells and incubated at 6-12° C. for 15 min. The cells were washed (5 min, 4° C., 250×g) and resuspended in 500 μl separation buffer. The magnetic column was prepared by washing with 3 ml separation buffer. […]
# TNFα was measured using a commercially available ELISA kit and MMP-9 was measured using a Fluorokine kit.
# gelatinase A (MMP-2) = target: T1, gelatinase A (MMP-2) (Homo sapiens, UniProt P08253); conditions: Table I; data taken from ref. 8; read-out: Ki(app) MMP-2; cited from earlier work
# T1 sequence (P08253 110-660): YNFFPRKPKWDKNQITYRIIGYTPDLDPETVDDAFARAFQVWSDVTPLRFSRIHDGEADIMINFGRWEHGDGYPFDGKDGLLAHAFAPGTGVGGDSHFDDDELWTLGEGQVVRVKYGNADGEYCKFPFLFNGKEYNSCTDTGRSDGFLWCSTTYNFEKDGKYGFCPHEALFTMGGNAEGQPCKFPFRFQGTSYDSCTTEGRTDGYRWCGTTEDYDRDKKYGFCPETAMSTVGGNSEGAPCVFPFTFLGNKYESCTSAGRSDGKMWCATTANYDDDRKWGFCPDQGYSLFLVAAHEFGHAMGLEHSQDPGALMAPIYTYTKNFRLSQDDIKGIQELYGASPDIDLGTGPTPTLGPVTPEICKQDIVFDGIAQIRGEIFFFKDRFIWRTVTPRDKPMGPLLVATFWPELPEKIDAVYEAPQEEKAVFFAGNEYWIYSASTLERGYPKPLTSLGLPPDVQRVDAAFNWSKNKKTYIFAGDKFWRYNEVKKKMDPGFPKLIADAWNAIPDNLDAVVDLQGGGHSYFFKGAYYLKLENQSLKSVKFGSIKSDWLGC
# [3] = target: catalytic domain of membrane-type 1 MMP (MMP-14(CD)); conditions: Table I; data taken from ref. 27; read-out: Ki(app) MMP-14(CD); cited from earlier work
Molecule,Inhibition of IL-1α stimulated cartilage degradation (GAG release) [1],EC50 [2] [nM],Effect on basal TNFα release by MDM [2],Ki (gelatinase A (MMP-2)) [nM],Ki [3] [nM]
B1,dose dependently inhibited degradation,~180,little effect,4.3 ± 0.5,0.8 ± 0.03
B2,–,~180,little effect,–,–
